A short description of the data set: yeast display, Sf9 membrane polyspecificity reagent, FACS + sequencing; frameworks hold sequencing errors. The method, boiled down:
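Using colony PCR, genes from sorted yeast display clones were amplified, then sequenced on MiSeq at 2 × 250 and filtered by CDR length. The clones had been stained with 10% biotinylated, detergent-solubilized Sf9 membrane reagent for 1 hour at 4 °C and sorted by FACS into low and high (top ~1%) gates on anti-HA and streptavidin fluorescence. Polyreactivity labels come from the gate of origin.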
With “QVQLVESGGGLVQAGGSLRLRCAASGRTLSSYAMGWYREAPGKERELVAAITRSGGSTYYADSVNGRFTISRDIAKNTVYLQMNSLKPEDTAVYYCAADGYRRYGSWGQGTQVTVSS”, the “polyreactivity (PSR sort gate)” value is reported as “high polyreactivity”.

As for “QVQLVESGGGLVQAGGSLRLSCAASGSTIKYYAMGWYRQAPGKDRELVAAINWSGDSTYYADSVKGRFTISRDNAKNTVYLQMHSLKPEETAVYYCAVRYQKRAYYGSNYWGQGTQVTVSS”, the “polyreactivity (PSR sort gate)” value was “high polyreactivity”.

Consider “QVQLVESGGGLVQAGGSLRLSFSASGRTFPFYAMGWYRQEPGKERDLVAAITVSGGSTYYADSVKGRFTISRDNAKNTVYLQMNSLKPVDTAVYYCNAKRSDQSSKTFNYWGQGTQVTVSS”, for which the “polyreactivity (PSR sort gate)” value is listed as “low polyreactivity”.

For “QVQLQESGGGLVQAGGSLRPLCAAGGTIFVSVNMRLYRHAPGEEREFVASITQGATTNYADSLIGRFTISRDNAKNTVYLLMNCQKPEDTEVYYCAVHESGGITFTYWGQGTQVTVSS”, the “polyreactivity (PSR sort gate)” value is listed as “high polyreactivity”.

For “QVQLVESGGGLVQAGGILRLSCAASGSNFRRNVMWYRQEPGKERELVAGISWRGTSTYYADSVNGRFTISRDNAKNTVYLQMNRLKPEDSAVYYCAALPFVYHRVNEFDYWGQGTQVTVSS”, the “polyreactivity (PSR sort gate)” value is reported as “high polyreactivity”.

“QVQLVESGGGLVQAGGSLRLSCAASGSIFPYYAMGWYRPAPGKERELVASINQSDGTTYYADSVKGRFTISRDNAKNTVYLQMNRLKPEDTAVSYCAADTTLQDFIRYRPMGSYDSWGQGTQVTVSS”: the “polyreactivity (PSR sort gate)” value is on record as “low polyreactivity”.

As for “QVQLLESGGGLVQAGGSLSLTCAASGSTFTRYVMGWYRQAPGTETELVAAISSNGGRTYYADSVKGRFTISRDNAKNTVDLQMTSLKPEDTAVYYCNLVRYAYNASVVYWGQGTQVTVSS”, the “polyreactivity (PSR sort gate)” value is reported as “high polyreactivity”.

Consider “QVQLVESGGGLVQAGGSLRLSCAASGRNFGNYAMGGYRQAPGKERELVAAISNGGSTNYADSVKGRVTISRDNAKNTVYFQMNSLKPEDTAVYYCNADQWAVIWGYLVLDFYYWGQGTQVPVSS”, for which the “polyreactivity (PSR sort gate)” value is on record as “low polyreactivity”.

As to “QVELVESGGGLVQAGGSLRLSCAASGSTFFKYDMGWYRQAPGKERELVAVITWSGGTTFYADSVKGRFTISRDNAKNTVYLQMNSLKPEDTAVYYCAADYYGYRYDYWGQGTQVTVSS”, the “polyreactivity (PSR sort gate)” value was “low polyreactivity”.

As for “QVQLVESGGGLVQAGGSLRLICAASGFIFIGYAMGWYRQARGKERELVAAISWRGGTYYADSVKGRFTISRDNAKNSVYLQMNSLKPEDTAVYYCAARTRNAVRSGSGKYDYCGQGTQVTVSS”, the “polyreactivity (PSR sort gate)” value was “low polyreactivity”.

As to “QDQLVESGGGLVQAGGSLRLSCAASGSIFLDNAMGWYRQAPGKERELVAAISKSGTRTYYADSVKGRFTISRDNAKNTVYLQMNSLKPEDTAVYYCNVVPKQAKSVELIGYYYWGQGTQVTVSS”, the “polyreactivity (PSR sort gate)” value was “high polyreactivity”.

As for “QVQHVESGRGLVQAGGSLRLSCAGSGFIFYKYAMGWYRQAPGKERELVAAITRGGSTNYADSVKGRFTISRDTAKNTVFLQMNSLKPEDTAVYYCAAGNRYGVRQLYQIVTRYYWGQGTQVTVSS”, the “polyreactivity (PSR sort gate)” value is reported as “high polyreactivity”.

Take “QVQLVESGGGLVQAGGSLRLICAASGRIFGRNAMGWYRQARGKERELVAGISSGGTTDYADSVKGRFTISRDNAKNTVYLQMNSLKPEDTAVYYCNVDNDDSAFYAIFVLYDYWGEGTQVTVSS”: the “polyreactivity (PSR sort gate)” value is recorded as “low polyreactivity”.

Turning to “QVQLVESGGGLVQAGGSLRLSCAASGRIFWGYAMGWYRQAPGKERELVAAISSGGSTNYADSVKGRFTISRDNAKNTVYLQMNSLKPEDTAVYYCAKDHAYTSAPHQYASEYYYWGQGTQVTVSS”, the “polyreactivity (PSR sort gate)” value is on record as “low polyreactivity”.

With “QFQLVESGGGLVQSGGSLRLSCAPTGLIFRPYAMGCYRQAPGKERELVAGINSGGNTDYADSVKGRFTISRDNAKNTVYLQMNSLKPEDTAVYYCNREYQVTIYDYCGQGTQVTVSS”, the “polyreactivity (PSR sort gate)” value was “low polyreactivity”.

Consider “QVQLVESGGGLVQAGGSLRLSCAASGSIFWSNAMGWYRQAPGKERELVAAITWSGGSTYADSVKGRFTISRDNAKNTVYLQMNSLKPEDTAVYYCAAERAILSSDKQSLWRFDYWGQGTQVTVSS”, for which the “polyreactivity (PSR sort gate)” value is “low polyreactivity”.

Consider “QVQLVESGGGLVQAGGSLRLSCAASGYIFTYYAMGWYRQAPGKERELVAAISGSDGNTYYADSVKGRFTISRDNAKNTVYLQMTSLKPEDTAVYYCAKSGGLTFRSQRYDYWGQGTQVTVSS”, for which the “polyreactivity (PSR sort gate)” value is reported as “low polyreactivity”.

Turning to “QVQLVESGGGLVQAGGSLRLSCAASGFTFFHYDMGWYRQAPGKERELVAAINTRGSRTYYADSVKGRFTISRDNAKNTVYLQMNSLKPEDTAGYYSAADSVQVYAGQYYYWGQGTQVTVSS”, the “polyreactivity (PSR sort gate)” value is “high polyreactivity”.

Take “QVQLVESGGGLVQAGGSLRLSCAASGRIFRYYAMGWYRQAPGKERELVAAISSSGGSTYYADSVKGRFTISRDNAKNTVYLQMNSLKPEDTAVYYCNTVGSVGKKRDYWGQGTQVTVSS”: the “polyreactivity (PSR sort gate)” value is recorded as “high polyreactivity”.

In the case of “QVQLVESGGGLVQAGGSLRLSCAASGSTFYNYAMGWYRQAPGKERELVASISSSGGSTYADSVKGRFTISRDNAKNTVYLQMNSLKPEDTAVYYCARVRWIVPWYGPTDDYWGQGTQVTVSS”, the “polyreactivity (PSR sort gate)” value is “low polyreactivity”.

With “QVQLVESGGGLVQAGGSLRLSCAASGRIFYSYAMGWYRQAPGKERELVAAIRRGGSTNYADSVKGRFTISRDNAKKTVYLQMNSLKPEDTAVYYCAAKGYKGYFLYNYWGQGTQVTVSS”, the “polyreactivity (PSR sort gate)” value is listed as “high polyreactivity”.

As for “QVQLVESGGGLVQAGGSLRLSCAASGFIFGINAMGWYRQEPGKERELFAAISKRTGSTYYADSVKGRFTISRDNAKNTVYLQMNSLKPEDTAFYYCNVVRYNGLDKYEYWGQGTQVTVSS”, the “polyreactivity (PSR sort gate)” value is recorded as “high polyreactivity”.

As to “QVQLVESGGGLVQAGGSLRLSCAASGRTFAYNVMGGYRQAPGKERELVAGISFGAGSTYYADSVKGRFTISRDNAKNTVYLQMNSLNPEDTAVYYCATRRRGTRYQLGYDYWGQGTQVTVSS”, the “polyreactivity (PSR sort gate)” value is recorded as “high polyreactivity”.

“QVQLVESGGGLVHAGGSLRLSCAASGITFVRYMGWYRQAPGKERELVAAISASGGSTYYADSVKGRFTISRDNAKNTVYLQLNCLKPEDTAVYYCRFLRVGSLTMDYWGQGSQVTVSS”: the “polyreactivity (PSR sort gate)” value is “high polyreactivity”.

On to “QVHLVDSAGGLVQAGGSLRLSCSASGSTFAVYAMGWYRQAPGKERELVAAISSSGDRTYYADSVKGRFTFSRDNAKNTVYLQMNILKPEDTAVYYCAVAIGYVYKTYYYWGQGTQVTVSS”, for which the “polyreactivity (PSR sort gate)” value is reported as “high polyreactivity”.

As for “QVQLVESGGGLVQAGGSLRLSCAASGRTFQGYAMGWYRQAPGKERELVAAISYRGGSTYYADSVKGRFTISRDHAKPTVFLPMNSLKPEDTAVYYCAARWNRGRYDYWGQGTQVTVSS”, the “polyreactivity (PSR sort gate)” value is “high polyreactivity”.

With “QVQLVESGGGLVQAGGSLRLSCAASGSIFRPYAMGWYRPAPGQDRELVAAISSSGGGTYYADSVKGRFTISRDNAKKTVYLQMNSLKPEDTAVYLYGSWGQGTQVTVSS”, the “polyreactivity (PSR sort gate)” value is “low polyreactivity”.

“QVQLVESGGGLVQAGGSLRLSCAASGRIFWSYGMGWYRQAPGKERELVAAITNTGDGTYYADSVKGRFTISRDNAKNTVYLQMNSLKPEDTAVYYCAVDYRGYWYWEYDYWGQGTQVTVSS”: the “polyreactivity (PSR sort gate)” value was “high polyreactivity”.

For “QVQLVESGGGLVQAGGSLRLSSAASGLTFESYAIGWYRQAPWKERELVAAISFSCGSTNYADAVKGRFTISRDNAKNTVYLQLNSLKPEDTAVYYCAAEYGSPRGTGYDSWGQGTQVTVSS”, the “polyreactivity (PSR sort gate)” value is listed as “high polyreactivity”.

Consider “QVQLVESGGGLVQAGGSLRLSCAASGYTFYRYTMGWYRQAPGKEREVVAAINSGGSTNYADSLKGRFTISRDNAKNTVYLQMNSLKPEDTAVYYCARRYQTWPRWYDYWGQGTQVTVSS”, for which the “polyreactivity (PSR sort gate)” value is given as “high polyreactivity”.

The values are drawn from the nanobody polyreactivity screen of Harvey et al. (2022).
